Experimental data published in patent publication US20220332804A1 (CSL INNOVATION, published 2022).
Substitutions are numbered along the chain they refer to.

What was measured:
[1] = biological target: T1, human complement C2 (human, UniProt P06681 21-752); test: SPR, mAb captured, C2 analyte
T1 construct: Recombinant full-length human C2 with C-terminal 8x His tag, purified from Expi293F supernatant; also called human C2; huC2
T1 sequence: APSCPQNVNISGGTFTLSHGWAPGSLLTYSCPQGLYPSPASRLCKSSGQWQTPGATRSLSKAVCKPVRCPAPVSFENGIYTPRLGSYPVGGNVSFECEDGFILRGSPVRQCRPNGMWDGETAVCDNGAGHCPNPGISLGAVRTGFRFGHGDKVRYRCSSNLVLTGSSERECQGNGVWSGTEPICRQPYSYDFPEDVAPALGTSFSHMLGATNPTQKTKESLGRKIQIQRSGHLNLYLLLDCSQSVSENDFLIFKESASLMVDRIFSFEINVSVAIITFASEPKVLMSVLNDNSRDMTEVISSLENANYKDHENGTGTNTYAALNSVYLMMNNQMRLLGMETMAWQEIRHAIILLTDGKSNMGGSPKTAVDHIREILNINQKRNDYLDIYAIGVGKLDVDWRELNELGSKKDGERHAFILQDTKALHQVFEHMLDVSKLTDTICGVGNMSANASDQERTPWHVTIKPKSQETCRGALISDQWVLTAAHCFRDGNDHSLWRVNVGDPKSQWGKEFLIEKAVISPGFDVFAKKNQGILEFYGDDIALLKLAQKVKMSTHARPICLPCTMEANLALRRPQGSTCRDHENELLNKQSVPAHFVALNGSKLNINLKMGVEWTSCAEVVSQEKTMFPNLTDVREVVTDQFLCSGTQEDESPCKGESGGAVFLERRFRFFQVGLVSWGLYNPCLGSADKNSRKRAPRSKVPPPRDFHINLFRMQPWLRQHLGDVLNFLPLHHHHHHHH

[2] = biological target: T1, human complement C2; test: SPR, mAb captured, huC2 analyte, pH 6, steady state
[3] = biological target: T2, human C2 L706A (human, UniProt P06681 21-752); test: SPR, antibody captured, C2 as analyte;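 note: biacore SPR at 37 °C, anti-C2 mAbs captured via goat anti-human IgG on CM5 chips, double-referenced sensorgrams fit to a 1:1 kinetic or steady-state model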
T2 sequence: T1 sequence with L686A

[4] = biological target: T3, human C2 K274A (human, UniProt P06681 21-752); test: SPR, KD relative to WT C2;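 note: biacore SPR at 37 °C, anti-C2 mAbs captured on anti-human IgG chips with alanine or serine point mutants of C2 as analyte, KD from 1:1 fit compared with wild-type C2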
T3 sequence: T1 sequence with K254A
Method: Surface plasmon resonance (SPR, Biacore) was used for all binding affinity analyses. In brief, goat anti-human IgG was directly immobilised onto the carboxymethyl dextran surface of CM5 sensorchips to approximately 12,000 RU using standard NHS/EDC chemistry at pH 5. The immobilised antibody surface was pre-conditioned with ten injections of polyclonal human IgG (Privigen 60 s) prepared at 1 μg/mL. Ligands (anti-C2 mAbs) were captured at the beginning of each cycle as described below. An adjacent spot or flow cell in which only Polyclonal IgG was capture was used as a reference surface. The goat anti-human IgG Fc antibody surface was regenerate in 100 mM H3PO4, injected for 45 seconds at the end of each cycle. Experiments were performed at 37° C. and the flow rate of each experiment was kept constant at 30 μL/min.
Sensogram data was double-referenced against a reference anti-IgG surface (i.e. minus anti-C2 mAb) and blank buffer injections obtained within each experiment. The binding data was fit to 1:1 (kinetic or steady-state) model using local Rmax and null refraction index (RI=0) when appropriate. Buffers and solutions were filtered (0.22 μm) prior to use.

B1: RF16-214 (antibody, V domains shown)
VH: EVQLLESGGGLVQPGGSLRLSCAASGFTFSWYQMMWVRQAPGKGLEWVSRIYPSGGGTAYADSVKGRFTISRDNSKNTLYLQMNSLRAEDTAVYYCARDAGYGDNWGQGTLVTVSS
VL: QSALTQPPSVSVSPGQTASITCSGDKLGEKYASWYQQKAGQSPVMVIYQDRKRPSGIPERFSGSNSGNTATLTISGTQAMDEADYYCQAWDTRAVVFGGGTKLTVLG
Kd [1]: 31 nM

B2: RF16-226 (antibody)
heavy: not shown
light: SYELTQPPSVSVSPGQTARITCSGDALTSKYVAWYQQKSGLAPLLVIYEDTRRPSGIPAKFSGSSSGSVATLTISGAHGDDEADYYCYSTDASGHQRVFGGGTKLTVLSQPKAAPSVTLFPPSSEELQANKATLVCLISDFYPGAVTVAWKADGSPVKAGVETTKPSKQSNNKYAASSYLSLTPEQWKSHRSYSCQVTHEGSTVEKTVAPTECS
Kd [2]: ~95 nM

B3: RF16-226 (antibody, human IgG4 S228P, lambda)
heavy: not shown
light: B2 light
notes: pH-dependent anti-C2 antibody from a phage display library; also called WT
Kd [3]: 229 nM

B4: RF16-242 (antibody, human IgG4 S228P, lambda, V domains shown)
VH: EVQLLQSGAEVKKPGESLKISCKGSGYSFTSYWIGWVRQMPGKGLEWMGIIYPGDSDTRYSPSFQGQVTISADKSISTAYLQWSSLKASDTAMYYCARRGHYGDYFDYWGQGTLVTVSS
VL: SYELTQPPSVSVSPGQTARITCSGDALPKKYAYWYHQKSGQAPVLVIYEDRRRPSEIPERFSGSSSGTMATLTITGAQVEDEGVYFCYSRDRAGNQRVFGGGTQLTVLG
notes: pH-dependent anti-C2 antibody from a phage display library
Fold diff [4]: 12 fold
